B1: ssDNA_neg (ssDNA)
DNA: TCGCCTTGCCGGATCGCAGACTTCCCCCCACTCCACTTCTTACTCCTTTCTGGTCCGTGAGCCTGACACC
B2: Tac-A5 (ssDNA)
DNA: TCGCCTTGCCGGATCGCAGATCTGTTCCGTGTTCGTTCCTTTCCTTGTTGTGGTCCGTGAGCCTGACACC
modifications: every T at positions 21-70 is 5-[(3-indolyl)propionamide-N-allyl]-dU (Utrp); T in 5' primer region (1-20) natural

What was measured:
[1] = molecular target: TROP2 FcHis (human TROP2 fused to IgG1 FcHis) (human, UniProt P09758 27-274+P01857:100-328, internal_change); experiment: capillary electrophoresis; 10 nM DNA, 4-fold protein; 20 mM Tris-HCl pH 7.4, 10 mM NaCl, 1 mM MgCl2, 0.05% Tween 20; 10 nM aptamer, 37 °C 30 min, then held at 15 °C; CE running buffer 100 mM sodium borate pH 8.35; settings: protein: commercial; IgG1 Fc-His fusion; chain copies: 2; label: 5' FAM
Sequence of TROP2 FcHis (human TROP2 fused to IgG1 FcHis) (P09758 other isoform, or with tags, fused parts or gaps): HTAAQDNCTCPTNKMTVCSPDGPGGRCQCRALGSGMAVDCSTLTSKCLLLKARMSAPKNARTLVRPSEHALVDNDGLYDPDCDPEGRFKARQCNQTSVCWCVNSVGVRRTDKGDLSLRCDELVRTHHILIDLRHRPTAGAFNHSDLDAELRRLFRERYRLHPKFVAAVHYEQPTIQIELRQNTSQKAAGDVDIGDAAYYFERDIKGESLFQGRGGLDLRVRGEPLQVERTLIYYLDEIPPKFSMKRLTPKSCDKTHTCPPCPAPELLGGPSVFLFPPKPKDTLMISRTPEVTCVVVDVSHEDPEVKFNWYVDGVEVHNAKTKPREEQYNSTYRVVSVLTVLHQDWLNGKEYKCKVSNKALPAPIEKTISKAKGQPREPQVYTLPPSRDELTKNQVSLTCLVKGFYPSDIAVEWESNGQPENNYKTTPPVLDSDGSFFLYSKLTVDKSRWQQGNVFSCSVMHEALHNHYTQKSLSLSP

[2] = molecular target: FcHis (human IgG1 Fc-His, counter-target for specificity) (human, UniProt P01857 100-328); experiment: as above; settings: protein: commercial; tags: His; chain copies: 2; label: 5' FAM
IgG1 Fc = IgG1 Fc (Homo sapiens (Human), UniProt P01857 104-328, glycosylated); experiment: capillary electrophoresis; 20 mM Tris pH 7.4, 10 mM NaCl, 1 mM MgCl2, 0.05% Tween 20, 37 C; settings: tags: His; chain copies: 2; label: 5'-FAM

Binder	binding result [1]	binding result [2]	Kd (IgG1 Fc) [nM]
B1	no binding	no binding	–
B2	–	–	> 1000
